# Data as given in publication doi:10.1101/2023.07.03.547386.
# Biological target: ATG8CL (recombinant, purified) (potato)
# Assay: ITC
# Sequence of ATG8CL (recombinant, purified) (potato) (M1C146 whole entry): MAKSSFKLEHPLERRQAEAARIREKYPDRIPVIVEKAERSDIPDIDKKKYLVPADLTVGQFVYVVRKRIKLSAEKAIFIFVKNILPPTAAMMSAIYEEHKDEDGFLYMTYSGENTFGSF
substance,measurement,value
Rab3GAPL AIM peptide (Rab3GAPL-AIMp),Kd,962 nM
same,stoichiometry N,1.03
